Experimental data reported in patent publication US20190322724.

Columns and labels:
[1] = molecular target: wild type human TIMP-2 with C-terminal His6 tag (WT TIMP-2-His6)
[2] = molecular target: WT TIMP-2-His6 tyrosine phosphorylated by c-Src

Sequence of TIMP-2 Y90F-His6 (chain, as listed by the source Y90F): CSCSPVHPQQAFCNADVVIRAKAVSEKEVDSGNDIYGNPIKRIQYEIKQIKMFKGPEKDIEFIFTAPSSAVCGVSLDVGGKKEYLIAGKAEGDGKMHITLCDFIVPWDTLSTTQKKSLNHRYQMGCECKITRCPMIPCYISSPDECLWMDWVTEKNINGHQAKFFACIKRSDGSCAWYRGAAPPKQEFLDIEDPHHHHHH
Sequence of TIMP-2 Y90E-His6 (chain, as listed by the source Y90E): as the sequence (chain, as listed by the source Y90F) above, with F64E counted along it

B1: active 62 kDa MMP-2 (protein)
chain: YNFFPRKPKWDKNQITYRIIGYTPDLDPETVDDAFARAFQVWSDVTPLRFSRIHDGEADIMINFGRWEHGDGYPFDGKDGLLAHAFAPGTGVGGDSHFDDDELWTLGEGQVVRVKYGNADGEYCKFPFLFNGKEYNSCTDTGRSDGFLWCSTTYNFEKDGKYGFCPHEALFTMGGNAEGQPCKFPFRFQGTSYDSCTTEGRTDGYRWCGTTEDYDRDKKYGFCPETAMSTVGGNSEGAPCVFPFTFLGNKYESCTSAGRSDGKMWCATTANYDDDRKWGFCPDQGYSLFLVAAHEFGHAMGLEHSQDPGALMAPIYTYTKNFRLSQDDIKGIQELYGASPDIDLGTGPTPTLGPVTPEICKQDIVFDGIAQIRGEIFFFKDRFIWRTVTPRDKPMGPLLVATFWPELPEKIDAVYEAPQEEKAVFFAGNEYWIYSASTLERGYPKPLTSLGLPPDVQRVDAAFNWSKNKKTYIFAGDKFWRYNEVKKKMDPGFPKLIADAWNAIPDNLDAVVDLQGGGHSYFFKGAYYLKLENQSLKSVKFGSIKSDWLGC
Q: How did the “MMP-2 enzymatic activity on a fluorogenic peptide substrate” value (“MMP-2 enzymatic activity” below) [1] turn out when B1 was run?
A: as expected WT TIMP-2 acts as an MMP-2 inhibitor

Q: And the “MMP-2 enzymatic activity” value (TIMP-2 Y90E-His6)?
A: phosphomimetic TIMP-2 Y90E inhibitory function correlates with significantly less MMP-2 enzymatic activity

Q: And the “MMP-2 enzymatic activity” value [2]?
A: phosphoTIMP-2 (pWT) is significantly (˜25 percent) more inhibitory than the non-phosphorylated WT TIMP-2 toward MMP-2

Q: What about the “MMP-2 enzymatic activity” value (TIMP-2 Y90F-His6) of the same protein?
A: non-phosphorylatable Y90F displayed a slightly less MMP-2 inhibitory activity compared the WT TIMP-2
